PMC9700808, “Poly ADP-ribosylation of SET8 leads to aberrant H4K20 methylation in mammalian nuclear genome” (Communications Biology, 2021)

T1: His-SET8 (UniProt Q9NQR1-2 1-352)
T1 sequence: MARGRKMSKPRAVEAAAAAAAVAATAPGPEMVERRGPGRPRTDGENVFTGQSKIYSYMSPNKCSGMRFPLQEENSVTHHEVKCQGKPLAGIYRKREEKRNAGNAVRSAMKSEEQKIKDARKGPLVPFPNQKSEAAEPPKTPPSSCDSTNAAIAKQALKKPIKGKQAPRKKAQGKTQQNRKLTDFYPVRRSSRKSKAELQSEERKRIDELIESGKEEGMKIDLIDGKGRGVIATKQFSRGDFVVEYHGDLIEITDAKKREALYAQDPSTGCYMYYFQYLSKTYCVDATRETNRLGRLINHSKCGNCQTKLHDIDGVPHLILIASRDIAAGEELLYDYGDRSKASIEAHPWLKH

B1: GST-SET8 disorder domain 80-230 (domain or fragment, UniProt Q9NQR1-2 80-230, looked up)
chain: EVKCQGKPLAGIYRKREEKRNAGNAVRSAMKSEEQKIKDARKGPLVPFPNQKSEAAEPPKTPPSSCDSTNAAIAKQALKKPIKGKQAPRKKAQGKTQQNRKLTDFYPVRRSSRKSKAELQSEERKRIDELIESGKEEGMKIDLIDGKGRGV
notes: SET8 (KMT5A) disorder domain, residues 80-230; printed numbering runs to 352; vector pGEX5X.1; primers in Supplementary File 1; also called GST-SET8 DD; disorder domain (DD); source: E. coli ER2566, purified, on glutathione-Sepharose beads
B2: full-length GST fusion SET8 (GST-SET8 FL) (enzyme, UniProt Q9NQR1-2 1-352, looked up)
chain: T1 sequence
notes: SET8 (KMT5A), full length; printed numbering runs to 352 (fragments 157-352, 175-352); vector pGEX5X.1; source: E. coli ER2566, purified, on glutathione-Sepharose beads
B3: GST-SET8 N-terminal 1-98 (domain or fragment, UniProt Q9NQR1-2 1-98, looked up)
chain: MARGRKMSKPRAVEAAAAAAAVAATAPGPEMVERRGPGRPRTDGENVFTGQSKIYSYMSPNKCSGMRFPLQEENSVTHHEVKCQGKPLAGIYRKREEK
notes: SET8 (KMT5A) residues 1-98; vector pGEX5X.1; primers in Supplementary File 1; also called N-terminal 1–98 amino acids; source: E. coli ER2566, purified, on glutathione-Sepharose beads

Legend:
[1] = molecular target: T2, full-length recombinant PARP1 protein (UniProt P09874 1-1014); experiment: pull-down; GST-SET8 fusions on glutathione-Sepharose beads, full-length recombinant PARP1 in solution; 1X PBS with 0.1% Triton X-100, 100 µg/ml BSA, 4 °C, 1 h; washes with 1% Triton X-100; western blot with anti-PARP1; conditions: both partners purified
T2 construct: PARP1, full-length recombinant protein bought from Active Motif; also called purified PARP1; PARP1 recombinant enzyme; source: bought: Active Motif (# 81037)

His-SET8 = molecular target: T1, His-SET8; experiment: EMSA; 2 mM MgCl2; GRB buffer: 20 mM HEPES pH 7.5, 10% glycerol, 25 mM KCl, 0.1 mM EDTA, 1 mM DTT, 2 mM MgCl2, 0.2% NP40; on ice 10-15 min; 6% TBE gel, 0.5x TBE, 4 C; conditions: protein: recombinant; tags: His; label: Cy3 (end); hairpin, 10 bp stem with AAA loop

T2 sequence (P09874 whole entry, the tested form may be a part): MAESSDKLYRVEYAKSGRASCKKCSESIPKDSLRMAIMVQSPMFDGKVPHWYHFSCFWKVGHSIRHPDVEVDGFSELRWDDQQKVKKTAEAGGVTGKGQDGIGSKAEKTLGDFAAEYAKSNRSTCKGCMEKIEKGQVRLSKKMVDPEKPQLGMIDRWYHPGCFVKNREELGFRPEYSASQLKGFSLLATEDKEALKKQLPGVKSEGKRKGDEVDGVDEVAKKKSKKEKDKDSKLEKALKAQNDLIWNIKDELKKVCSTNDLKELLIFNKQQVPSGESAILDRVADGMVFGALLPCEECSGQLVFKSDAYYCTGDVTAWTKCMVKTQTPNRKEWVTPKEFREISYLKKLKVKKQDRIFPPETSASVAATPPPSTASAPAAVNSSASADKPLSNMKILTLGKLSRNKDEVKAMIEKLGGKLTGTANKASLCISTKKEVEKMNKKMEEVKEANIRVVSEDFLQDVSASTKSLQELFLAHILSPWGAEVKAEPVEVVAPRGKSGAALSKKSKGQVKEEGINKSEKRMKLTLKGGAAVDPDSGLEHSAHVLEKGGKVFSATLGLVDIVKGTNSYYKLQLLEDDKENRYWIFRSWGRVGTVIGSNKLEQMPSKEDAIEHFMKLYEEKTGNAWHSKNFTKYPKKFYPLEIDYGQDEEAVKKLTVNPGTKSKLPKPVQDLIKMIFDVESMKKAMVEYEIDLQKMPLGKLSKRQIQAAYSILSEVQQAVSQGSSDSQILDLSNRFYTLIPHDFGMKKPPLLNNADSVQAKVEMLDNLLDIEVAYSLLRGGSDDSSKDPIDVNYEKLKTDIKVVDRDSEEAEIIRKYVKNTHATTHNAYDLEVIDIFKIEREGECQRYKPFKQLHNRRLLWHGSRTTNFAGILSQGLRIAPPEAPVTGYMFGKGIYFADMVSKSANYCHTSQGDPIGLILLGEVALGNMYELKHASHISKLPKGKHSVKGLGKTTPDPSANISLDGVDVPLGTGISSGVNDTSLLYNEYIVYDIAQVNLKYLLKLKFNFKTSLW

Binder | binding result [1] | Kd (His-SET8)
B1 | binds | –
B2 | binds | –
B3 | binds | –
GGGAATTCCCAAAGGGAATTCCC (structured_DNA) [EcoRI hairpin oligonucleotide] | – | 1600 ± 600 nM
